In patent US20150231240A1, “ANTI-C16ORF54 ANTIBODIES AND METHODS OF USE THEREOF” (priority 2012, published 2015):

What was measured:
[1] = target: T1, N-terminal 32 amino acids of huC16orf54 (Homo sapiens, UniProt Q6UWD8); test: Off-rate screen of hybridoma supernatants on OctetQK384 (biolayer interferometry); type: binding; details: calculated off-rate
T1 sequence (Q6UWD8 1-32 limits assumed): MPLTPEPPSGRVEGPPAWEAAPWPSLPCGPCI
Protocol: Eight anti-huC16orf54 monoclonal antibodies were further screened for binding and subsequent off-rate analysis using the OctetQK384® sytem (ForteBio). Hybridoma supernatants were screened for association to and dissocation from streptavidin sensors coated with the N-terminal 32 amino acids of huC16orf54 coupled to biotin, and the calculated offrates (kdis) are shown in Table 31. Cloned hybridomas with […] off-rates were carried forward for antibody purification.

human C16orf54 = target: T2, human C16orf54 (Homo sapiens, UniProt Q6UWD8); test: Flow cytometry reactivity with sarcoma cells expressing human C16orf54 (fold change over isotype); type: binding; details: for binding to human C16orf54 (flow cytometry): sarcoma cells expressing human C16orf54, 10 μg/ml antibody
T2 construct: expressed in transfected cells; host or cells: murine sarcoma cells (D42M1-huC16orf54)
T2 sequence (Q6UWD8 1-224): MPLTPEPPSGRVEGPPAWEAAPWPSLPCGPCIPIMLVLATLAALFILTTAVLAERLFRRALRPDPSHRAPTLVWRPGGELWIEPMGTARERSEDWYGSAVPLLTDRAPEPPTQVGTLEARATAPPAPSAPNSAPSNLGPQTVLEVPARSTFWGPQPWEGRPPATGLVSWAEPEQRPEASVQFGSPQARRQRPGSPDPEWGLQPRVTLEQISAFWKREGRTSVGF
Protocol: Anti-C16orf54 antibodies which bound to human C16orf54 were tested for their reactivity with human C16orf54 and their crossreactivity with C16orf54 from cynomolgous monkeys (cyno C16orf54) using flow cytometry. Sarcoma cells transfected with and expressing human C16orf54 or cyno C16orf54 were washed with PBS with 0.1% BSA, incubated with FcX receptor blocking solution (BioLegend) for 15 minutes, incubated with 10 μg/ml of anti-C16orf54 antibody for 1 hour at 4° C., washed twice with PBS with 0.1% BSA, incubated with 20 μg/ml of R-Phycoerythrin-AffiniPure F(ab′)2 Fragment Goat Anti-Mouse IgG, Fcγ Fragment Specific (Jackson ImmunoResearch) for 30 minutes at 4° C., washed twice with PBS with 0.1% BSA, incubated with the viability dye TO-PRO-3 iodide (Life Technologies), and immediately analyzed on a MACSQuant Analyzer instrument (Miltenyi). For each cell line and anti-C16orf54 antibody, a fold change was derived by dividing the median fluorescence intensity for Phycoerythrin in the live cell population for the anti-C16orf54 antibody by the median fluorescence intensity for Phycoerythrin in the live cell population for the IgG isotype control antibody.

[2] = tested on: human C16orf54 extracellular domain peptides; test: C16orf54 peptide ELISA, human extracellular domain peptides; type: binding; details: human, cyno, or mouse extracellular domain peptides, not told apart; 10 μg/ml antibody
Protocol: Anti-C16orf54 antibodies which bind to human C16orf54, including antibodies that are crossreactive with cyno C16orf54, were tested for their binding to various peptides derived from C16orf54 in a peptide ELISA. A 384-well high binding black microplate (Greiner) was incubated with 2 μg/ml of protein (human, cyno, or mouse extracellular domain peptides) for 16 hours, incubated for 1 hr with a blocking buffer (PBS with 5% Fetal Bovine Serum), washed four times with TBS with Tween, incubated for 1 hour with 10 μg/ml of anti-C16orf54 antibody, washed four times with TBS with Tween, incubated for 1 hour with 10 μg/ml of Peroxidase-AffiniPure Goat Anti-Mouse IgG, Fcγ Fragment Specific (Jackson ImmunoResearch), washed four times with TBS with Tween, and peroxidase was detected with a luminometer (Molecular Devices) upon addition of SuperSignal® ELISA Pico Chemiluminescent Substrate (Thermo Scientific). The luminescence signal was determined.

[3] = target: T3, extracellular domain of c16orf54 (amino acids 1-31) fused to human IgG1 Fc (Homo sapiens, UniProt Q6UWD8); test: C16orf54 peptide-Fc fusion protein ELISA; type: binding; details: serial dilution of antibody; HRP-conjugated anti mouse secondary
T3 construct: the extracellular domain of c16orf54 (amino acids 1-31) either N terminal or C-terminal to a human IgG1 Fc domain; made in house; host or cells: 293 T cells, transient; Protein A purification
T3 sequence (Q6UWD8 1-31 limits assumed): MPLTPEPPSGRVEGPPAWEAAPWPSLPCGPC
Protocol: Anti-C16orf54 antibodies which bind to human C16orf54, including antibodies that are crossreactive with cyno C16orf54, were tested for their binding to various peptides derived from C16orf54 that were fused to human IgG (e.g., IgG1) constant regions to generate various peptide-Fc fusion proteins in an Fc-based ELISA. An exemplary Fc sequence comprises an IgG1 Hinge region sequence and IgG1 CH3 and […] domain sequences.
The fusion proteins were transiently expressed in 293 T cells. Protein was purified from the 293 expression supernatants by Protein A-based affinity purification. Exemplary C16 peptide-Fc fusion constructs that were made and purified are shown with their protein yield in Table 38. ELISA assays were performed by coating 384 well plates with the fusion proteins overnight at 4C. Antibodies were analyzed by serial dilution with concentrations ranging from 40 ug/mL to […]. Binding was detected with an HRP-conjugated anti mouse secondary antibody.

[4] = tested on: KG-1 (acute myeloid leukemia) xenograft; type: in vivo, NOD-SCID mice; details: for tumor growth inhibition (in words) / tumor growth inhibition: KG-1 xenograft; for tumor growth inhibition (in words): compared to control IgG, antibodies weekly; for tumor growth inhibition: treatment initiated at 92 mm^3, HB121 IgG isotype negative control; for TGI (tumor growth inhibition) / Mean (tumor volume): Table 42, KG-1 AML model, NOD-SCID mice, weekly administration; for Mean (tumor volume): in mm³ (unit assumed)
Protocol: Subcutaneous tumors are generated by injection of 1×10^7 cancer cells in a mixture of PBS (without magnesium or calcium) and BD Matrigel™ (BD Biosciences) at a 1:1 ratio in the right flank of female SCID or nu^−/− mice. The injected total volume per mouse is […] with 50% being Matrigel (BD Biosciences). Mice are randomized once tumors reach a size between 65-200 mm^3. Antibodies are administered weekly, and body weights and tumors are measured once and twice weekly, respectively. Tumor volume is calculated as described (van der Horst et al. (2009) Neoplasia 11: 355-364). As a negative control, mice are injected with either purified mouse IgG or PBS; or a purified monoclonal antibody that recognizes an antigen other than C16orf54.
Anti-C16orf54 antibodies were tested for their anti-tumor activity in an animal-tumor model. For these studies, the cell line KG-1 (acute myeloid leukemia) was obtained from ATCC and cultured according to the suppliers' protocols. Animals were obtained from Taconic (Hudson, N.Y.). Studies were conducted with anti-C16orf54 antibodies and antibody-drug conjugates (ADCs) of these antibodies.
In these experiments, 4-6 week-old immunodeficient NOD-SCID female mice were used for the KG-1 tumor model. Mice were subcutaneously injected on the right flank with 6×10^6 viable cells (KG-1) in a mixture of PBS (without magnesium or calcium) and BD Matrigel™ (BD Biosciences). Once the tumor reached a size between 65-200 mm^3 mice were randomized. Anti-C16orf54 antibodies were administered weekly, and bodyweights and tumors were measured once and twice weekly, respectively. Tumor volume was calculated as described (van der Horst et al., supra). Experiments were performed on groups of at least eight animals per experimental point.
Statistical significance between treatment and control groups was calculated using the Graphpad Prism® software package and applying Student's two-tailed t-test. A p-value of less than 0.05 was considered significant.

C16orf54 ECD peptides = test: Peptide crossblocking (Table 36); type: binding

B1: R29-7-1C: murine anti-C16orf54 monoclonal antibody, IgG2a; VH SEQ ID NO: 8, VL SEQ ID NO: 10 (antibody, V domains shown)
VH: MRVLILLWLFTAFPGILSDVQLQESGPGLVKPSQSLSLTCTVTGYSITSDYAWNWIRQFPGNKLEWMGYISYSGSIRYNPSLKSRISITRDTSKNQFFLQLNSVTTEDTATYYCAREKYDNYYYAMDYWGQGTSVTVSS
VL: MDSQAQVLMLLLLWVSGTCGDIVMSQSPSSLAVSVGEKVTLSCKSSQNLLYSTNQKNYLAWYQQKPGQSPKLLIYWASTRESGVPDRFTGSGSGTDFTLTISSVKAEDLAVYYCQQYYSYRTFGGGTKLEIK
modifications: R29-7-1C heavy chain variable region; R29-7-1C light chain variable region
kdis [1]: 0.0102 s⁻¹ | binding to C16orf54-expressing cells (dual binders) (human C16orf54): bind to C16orf54-expressing cells | binding to human C16orf54 (flow cytometry) (human C16orf54): bind human C16orf54 | binding to peptides derived from the extracellular domain of C16orf54 (peptide ELISA) [2]: bind to the various peptides derived from the extracellular domain (ECD) of C16orf54 | binding to peptide-Fc fusion proteins (Fc-based ELISA) [3]: able to bind to the peptide-Fc fusion proteins | tumor growth inhibition (in words) [4]: inhibitors of tumor growth | tumor growth inhibition [4]: 69% | TGI (tumor growth inhibition) [4]: −8% | Mean (tumor volume) [4]: 2813.4 | Peptide crossblocking (C16orf54 ECD peptides): none

B2: R29-67-7A: murine anti-C16orf54 monoclonal antibody, IgG2a; VH SEQ ID NO: 12, VL SEQ ID NO: 14 (antibody, V domains shown)
VH: MRVLILLWLFTAFPGILSDVQLQESGPGLVKPSQSLSLTCTVTGYSITSDYAWNWIRQFPGNKLEWMGYINYSGRTRYNPSLNSRISLTRDTSTNQFFLQLNSVTTEDTATYYCARENYDYEFYAMDYWGQGTSVTVSS
VL: MESQAQVLMLLLLWVSGTCGDIVMSQSPSSLAVSVGEKVTMSCKSSQNLLYSSNQKNYLAWYQQKPGQSPKLLIYWASTRESGVPDRFTGSGSGTDFTLTISSVKAEDLAVYYCQQYYIYRTFGGGTKLEIK
modifications: R29-67-7A heavy chain variable region; R29-67-7A light chain variable region
kdis [1]: 0.00845 s⁻¹ | binding to C16orf54-expressing cells (dual binders) (human C16orf54): bind to C16orf54-expressing cells | binding to human C16orf54 (flow cytometry) (human C16orf54): bind human C16orf54 | binding to peptides derived from the extracellular domain of C16orf54 (peptide ELISA) [2]: bind to the various peptides derived from the extracellular domain (ECD) of C16orf54 | binding to peptide-Fc fusion proteins (Fc-based ELISA) [3]: able to bind to the peptide-Fc fusion proteins | tumor growth inhibition (in words) [4]: inhibitors of tumor growth | tumor growth inhibition [4]: 70% | TGI (tumor growth inhibition) [4]: 6% | Mean (tumor volume) [4]: 3221.4 | Peptide crossblocking (C16orf54 ECD peptides): aa1-31, aa1-15
